The results in this text go back to patent publication US20030215854, “Detection of DNA-binding proteins” (published 2003).

The target of series [1] is T1, NF-kB p50 (UniProt P19838 P19838:1-433). The series is described as follows: bead capture with anti-p50 antibody, Luminex; dose dependent; 10 mM Tris pH 7.5, 50 mM NaCl, 2 mM KCl, 2 mM MgCl2, poly dI-dC, room temperature. Conditions: tags: Promega E3770; chain copies: 2; duplex with single-stranded 3' tag. As to the method: P04 Kbfor and KBrev were annealed by first diluting 100 uM oligonucleotide stocks into annealing buffer (40 mM Tris pH 7.5, 100 mM NaCl, and 1 mM EDTA), to give a ratio of 20 nM P04 Kbfor: 1 uM KBrev. 100 ul of the oligonucleotide mix was then heated to 95° C. for 1 minute, and cooled linearly to room temperature over a period of 45 minutes. 1 ul of the annealed mixture containing detection duplexes displaying a single stranded tag sequence was added to 19 ul of transcription factor binding buffer (10 mM tris pH 7.5, 50 mM NaCl, 2 mM KCl, 2 mM MgCl2) containing 250 ng poly dI-dC, and 0.5% bovine serum albumin (fraction V) and incubated with varying amounts of NF-kB P50 protein for 15 minutes at room temperature. 1800 beads suspended in 25 ul of transcription factor binding buffer containing 0.35% BSA was added to appropriate reactions and incubated 30 minutes at room temperature. Following the hybridization of DNA binding protein-detection duplex complexes to bead surfaces, 25 ul of transcription factor binding buffer containing (0.1 ug) of NF-kB P50 specific primary antibody (Santa Cruz Biotechnolgy Cat #SC-114) was added to the detection duplex-sample-bead mix and incubated for 20 minutes at room temperature in the dark while shaking. […] 25 ul of each assay were read using the Luminex 100 instrumentation.

The target in series [2] is T1, NF-kB p50. As to the kind of experiment: protection from lambda exonuclease, signal approx 3600 fluorescent units with p50; poly dI-dC. The conditions noted are these: tags: Promega E3770; chain copies: 2; label: 3' biotin on KBrev; duplex with single-stranded 3' tag.

T1 sequence (P19838 1-433, one chain of several): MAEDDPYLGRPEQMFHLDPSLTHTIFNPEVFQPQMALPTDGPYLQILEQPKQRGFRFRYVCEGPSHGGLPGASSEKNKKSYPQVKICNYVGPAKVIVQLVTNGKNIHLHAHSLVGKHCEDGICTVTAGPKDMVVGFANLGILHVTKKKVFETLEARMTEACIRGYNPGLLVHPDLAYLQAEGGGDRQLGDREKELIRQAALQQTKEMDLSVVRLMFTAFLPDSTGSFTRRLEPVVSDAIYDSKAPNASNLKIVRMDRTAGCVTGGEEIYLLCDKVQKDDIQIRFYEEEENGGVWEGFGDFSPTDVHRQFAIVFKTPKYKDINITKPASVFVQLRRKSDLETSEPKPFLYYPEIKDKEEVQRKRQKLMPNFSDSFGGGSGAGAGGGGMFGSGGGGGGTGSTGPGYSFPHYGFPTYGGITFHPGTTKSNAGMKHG

B1: PO4 Kbfor/KBrev (dsDNA)
DNA 1: AGTTGAGGGGATCCCCAGGAGCGGCTTATCGGTCTATTCAACTCCCCTAGGGG
DNA 2: TCCTGGGGATCCCCTCAACT
modifications: 5' phosphate on Kbfor
As for B1, the binding result with NF-kB p50 [1] is recorded as “binds”.

B2: PO4 Kbfor/biotinKBrev (dsDNA)
DNA 1: B1 DNA 1
DNA 2: TCCTGGGGATCCCCTCAACT
modifications: 5' phosphate on Kbfor
Consider B2, for which, in the series with NF-kB p50 [2], the binding result is given as “binds”.
